According to article PMC2536506:

Molecular target: GST-TDRD3-Tdr E691K (human)
Assay: pull-down

percent reduction of binding against wild-type GST-TDRD3-Tdr [%] | Substance
90 | Eukaryotic translation elongation factor 1 alpha 1 (from UniProt P68104 1-462) (natural protein)
50 | DEAD/H box-3 (from UniProt O00571-1 1-662) (natural protein)
